The chains are these.
B1: RUN and FYVE domain-containing protein 1, residues 639 to 698; numbered along this chain, Q96T51 (parent)
chain: WLKDDEATHCRQCEKEFSISRRKHHCRNCGHIFCNTCSSNELALPSYPKPVRVCDSCHTL

± gives the uncertainty stated by the source.

The series covers variants of B1. The experiment in a line: abundance fitness (aPCA) (normalised: wild type 0, dead -1); higher = more abundant; growth selection in yeast, the domain comes from the species named. Conditions: Homo sapiens.
As to WLKDDEATHCRQCEKEFSISRRKHHCRNCGHIFVNTCSSNELALPSYPKPVRVCDSCHTL [C34V], the abundance fitness is -0.496 ± 0.055.
For WLKDDEATHCRQCEKEFSISRRKHHCRNCGHIFQNTCSSNELALPSYPKPVRVCDSCHTL [C34Q] the value was -0.542 ± 0.074.
For WLKDDEATHCRQCEKEFSISRRKHHCRNCGHIFWNTCSSNELALPSYPKPVRVCDSCHTL [C34W] the value was -0.736 ± 0.067; for WLKDDEATHCRQCEKEFSISRRKHHCRNCGHIFTNTCSSNELALPSYPKPVRVCDSCHTL [C34T], -0.612 ± 0.057.
Under WLKDDEATHCRQCEKEFSISRRKHHCRNCGHIFYNTCSSNELALPSYPKPVRVCDSCHTL [C34Y] stands -0.682 ± 0.086; under WLKDDEATHCRQCEKEFSISRRKHHCRNCGHIFPNTCSSNELALPSYPKPVRVCDSCHTL [C34P], -0.633 ± 0.079; under WLKDDEATHCRQCEKEFSISRRKHHCRNCGHIFSNTCSSNELALPSYPKPVRVCDSCHTL [C34S], -0.758 ± 0.053.
For the variant WLKDDEATHCRQCEKEFSISRRKHHCRNCGHIFRNTCSSNELALPSYPKPVRVCDSCHTL [C34R], the abundance fitness was -0.642 ± 0.049.
For WLKDDEATHCRQCEKEFSISRRKHHCRNCGHIFNNTCSSNELALPSYPKPVRVCDSCHTL [C34N] the value was -0.709 ± 0.11; for WLKDDEATHCRQCEKEFSISRRKHHCRNCGHIFCNYCSSNELALPSYPKPVRVCDSCHTL [T36Y], 0.177 ± 0.043; for WLKDDEATHCRQCEKEFSISRRKHHCRNCGHIFCNGCSSNELALPSYPKPVRVCDSCHTL [T36G], 0.444 ± 0.032.
For WLKDDEATHCRQCEKEFSISRRKHHCRNCGHIFCNDCSSNELALPSYPKPVRVCDSCHTL [T36D] the value was 0.401 ± 0.048; for WLKDDEATHCRQCEKEFSISRRKHHCRNCGHIFCNWCSSNELALPSYPKPVRVCDSCHTL [T36W], 0.168 ± 0.041; for WLKDDEATHCRQCEKEFSISRRKHHCRNCGHIFCNNCSSNELALPSYPKPVRVCDSCHTL [T36N], 0.276 ± 0.072.
Under WLKDDEATHCRQCEKEFSISRRKHHCRNCGHIFCNVCSSNELALPSYPKPVRVCDSCHTL [T36V] stands 0.342 ± 0.029; under WLKDDEATHCRQCEKEFSISRRKHHCRNCGHIFCNHCSSNELALPSYPKPVRVCDSCHTL [T36H], 0.287 ± 0.075.
With WLKDDEATHCRQCEKEFSISRRKHHCRNCGHIFCNLCSSNELALPSYPKPVRVCDSCHTL [T36L], the abundance fitness amounted to 0.3 ± 0.033.
For WLKDDEATHCRQCEKEFSISRRKHHCRNCGHIFCNQCSSNELALPSYPKPVRVCDSCHTL [T36Q] the value was 0.403 ± 0.037; for WLKDDEATHCRQCEKEFSISRRKHHCRNCGHIFCNFCSSNELALPSYPKPVRVCDSCHTL [T36F], 0.208 ± 0.064; for WLKDDEATHCRQCEKEFSISRRKHHCRNCGHIFCNACSSNELALPSYPKPVRVCDSCHTL [T36A], 0.349 ± 0.041.
Under WLKDDEATHCRQCEKEFSISRRKHHCRNCGHIFCNKCSSNELALPSYPKPVRVCDSCHTL [T36K] stands 0.254 ± 0.076; under WLKDDEATHCRQCEKEFSISRRKHHCRNCGHIFCNRCSSNELALPSYPKPVRVCDSCHTL [T36R], 0.351 ± 0.033.
For WLKDDEATHCRQCEKEFSISRRKHHCRNCGHIFCNICSSNELALPSYPKPVRVCDSCHTL [T36I] the value was 0.083 ± 0.076; for WLKDDEATHCRQCEKEFSISRRKHHCRNCGHIFCNPCSSNELALPSYPKPVRVCDSCHTL [T36P], 0.202 ± 0.048.
Regarding WLKDDEATHCRQCEKEFSISRRKHHCRNCGHIFCNSCSSNELALPSYPKPVRVCDSCHTL [T36S], the abundance fitness was 0.214 ± 0.038.
For the variant WLKDDEATHCRQCEKEFSISRRKHHCRNCGHIFCNTMSSNELALPSYPKPVRVCDSCHTL [C37M], the abundance fitness is -0.567 ± 0.064.
For the variant WLKDDEATHCRQCEKEFSISRRKHHCRNCGHIFCNTGSSNELALPSYPKPVRVCDSCHTL [C37G], the abundance fitness was -0.471 ± 0.047.
In the case of WLKDDEATHCRQCEKEFSISRRKHHCRNCGHIFCNTFSSNELALPSYPKPVRVCDSCHTL [C37F], the abundance fitness was -0.649 ± 0.13.
As to WLKDDEATHCRQCEKEFSISRRKHHCRNCGHIFCNTLSSNELALPSYPKPVRVCDSCHTL [C37L], the abundance fitness is -0.719 ± 0.049.
WLKDDEATHCRQCEKEFSISRRKHHCRNCGHIFCNTKSSNELALPSYPKPVRVCDSCHTL [C37K]: the abundance fitness is -0.658 ± 0.072.
For WLKDDEATHCRQCEKEFSISRRKHHCRNCGHIFCNTISSNELALPSYPKPVRVCDSCHTL [C37I] the value was -0.825 ± 0.17; for WLKDDEATHCRQCEKEFSISRRKHHCRNCGHIFCNTNSSNELALPSYPKPVRVCDSCHTL [C37N], -0.282 ± 0.26.
For WLKDDEATHCRQCEKEFSISRRKHHCRNCGHIFCNTQSSNELALPSYPKPVRVCDSCHTL [C37Q] the value was -0.557 ± 0.06.
For WLKDDEATHCRQCEKEFSISRRKHHCRNCGHIFCNTSSSNELALPSYPKPVRVCDSCHTL [C37S] the value was -0.568 ± 0.052; for WLKDDEATHCRQCEKEFSISRRKHHCRNCGHIFCNTTSSNELALPSYPKPVRVCDSCHTL [C37T], -0.627 ± 0.061; for WLKDDEATHCRQCEKEFSISRRKHHCRNCGHIFCNTHSSNELALPSYPKPVRVCDSCHTL [C37H], -0.325 ± 0.12.
Regarding WLKDDEATHCRQCEKEFSISRRKHHCRNCGHIFCNTYSSNELALPSYPKPVRVCDSCHTL [C37Y], the abundance fitness was -0.615 ± 0.16.
As to WLKDDEATHCRQCEKEFSISRRKHHCRNCGHIFCNTRSSNELALPSYPKPVRVCDSCHTL [C37R], the abundance fitness is -0.553 ± 0.047.
Under WLKDDEATHCRQCEKEFSISRRKHHCRNCGHIFCNTPSSNELALPSYPKPVRVCDSCHTL [C37P] stands -0.537 ± 0.068; under WLKDDEATHCRQCEKEFSISRRKHHCRNCGHIFCNTASSNELALPSYPKPVRVCDSCHTL [C37A], -0.326 ± 0.069.
On to WLKDDEATHCRQCEKEFSISRRKHHCRNCGHIFCFTCSSNELALPSYPKPVRVCDSCHTL [N35F], for which the abundance fitness is -0.064 ± 0.059.
For WLKDDEATHCRQCEKEFSISRRKHHCRNCGHIFCDTCSSNELALPSYPKPVRVCDSCHTL [N35D] the value was 0.324 ± 0.067; for WLKDDEATHCRQCEKEFSISRRKHHCRNCGHIFCHTCSSNELALPSYPKPVRVCDSCHTL [N35H], 0.178 ± 0.059.
For WLKDDEATHCRQCEKEFSISRRKHHCRNCGHIFCKTCSSNELALPSYPKPVRVCDSCHTL [N35K] the value was 0.183 ± 0.057.
